From patent US20130244255A1, “ANTIBODIES DIRECTED TO GPNMB AND USES THEREOF” (priority 2006, published 2013)

Experiments:
[1] = Pharmacokinetics of CR011-vcMMAE after intravenous administration (sandwich ELISA of antibody in serum); type: in vivo, athymic mice; conditions: for A (pre-exponential constant for alpha phase) / AUC (total area under the curve from 0 to infinity) / Alpha (exponential rate constant for alpha phase) / Alpha-Half Life / B (pre-exponential constant for beta phase) / Beta (exponential rate constant for beta phase) / Beta-Half Life / Cl (total or systemic clearance) / MRT (mean residence time) / Volume (volume of central compartment) / Vss (steady-state volume of distribution): athymic mice, i.v.
Method: The concentration-time pattern was bi-phasic. […] Nevertheless, the compound disappeared very slowly from the peripheral blood (T1/2β=10.3 days) with serum concentrations of […] and 10 μg/mL remaining in the blood for 6 weeks after dosing.

MOLT-4 = test: Clonogenic assay (methylcellulose) with 1.15.1-AE; type: cell-based, human
Method: (§1) Lymphoma or leukemia cell lines were mixed with methylcellulose base media (R&D Systems, USA) and in various concentrations of unconjugated and Auristatin E-conjugated 1.15.1 antibody before plating onto 6-well tissue culture plates (Becton Dickinson, Franklin Lakes, N.J., USA). […] Plates were incubated at 37° C. and examined daily. On days 14-18, colonies on the plates were counted.

Jurkat = test: Clonogenic assay (methylcellulose) with 1.15.1-AE; type: cell-based, human
Method: as §1

DEL = test: Clonogenic assay (methylcellulose) with 1.15.1-AE; type: cell-based, human
Method: as §1

KG-1 = test: Clonogenic assay (methylcellulose) with 1.15.1-AE; type: cell-based, human
Method: as §1

Karpas 299 = test: Clonogenic assay (methylcellulose) with 1.15.1-AE; type: cell-based, human
Method: as §1

PL-21 = test: Clonogenic assay (methylcellulose) with 1.15.1-AE; type: cell-based, human
Method: as §1

SU-DHL-1 = test: Clonogenic assay (methylcellulose) with 1.15.1-AE; type: cell-based, human
Method: as §1

SUP-M2 = test: Clonogenic assay (methylcellulose) with 1.15.1-AE; type: cell-based, human
Method: as §1

CCRF-CEM = test: Clonogenic assay (methylcellulose) with 1.15.1-AE; type: cell-based, human
Method: as §1

GPNMB = molecular target: T1, GPNMB (Homo sapiens, UniProt Q14956); test: Binning of antibodies (Luminex competitive binding)
T1 construct: we cloned the human CG56972 extracellular domain (ECD; aa 23-480); made in house; host or cells: HEK 293 cells
T1 sequence (Q14956 23-492): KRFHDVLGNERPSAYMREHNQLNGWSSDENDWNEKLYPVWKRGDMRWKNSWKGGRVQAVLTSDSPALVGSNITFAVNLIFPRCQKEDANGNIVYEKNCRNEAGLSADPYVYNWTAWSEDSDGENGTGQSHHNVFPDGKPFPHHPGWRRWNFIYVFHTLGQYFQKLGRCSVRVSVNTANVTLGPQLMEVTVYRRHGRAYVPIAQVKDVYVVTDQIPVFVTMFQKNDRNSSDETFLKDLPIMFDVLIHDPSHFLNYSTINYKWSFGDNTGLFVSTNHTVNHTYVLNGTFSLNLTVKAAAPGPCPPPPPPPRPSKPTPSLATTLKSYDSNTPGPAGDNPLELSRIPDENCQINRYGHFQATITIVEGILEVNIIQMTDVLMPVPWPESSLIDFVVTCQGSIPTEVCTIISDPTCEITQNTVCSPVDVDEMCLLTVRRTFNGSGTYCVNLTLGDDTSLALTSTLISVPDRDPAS
Method: Certain antibodies, described herein were binned in accordance with the protocol described in U.S. Patent Application Publication No. 20030157730. M×hIgG conjugated beads are prepared for coupling to primary antibody. The volume of supernatant needed is calculated using the following formula: (n+10)×50 μL (where n=total number of samples on plate). Where the concentration is known, 0.5 μg/mL is used. Bead stock is gently vortexed, then diluted in supernatant to a concentration of 2500 of each bead per well or 0.5×10^5/mL and incubated on a shaker in the dark at RT overnight, or 2 hours if at a known concentration of 0.5 μg/mL. Following aspiration, 50 μL of each bead is added to each well of filter plate, then washed once by adding 100 μL/well wash buffer and aspirating. Antigen and controls are added to filter plate 50 μL/well then covered and allowed to incubate in the dark for 1 hour on shaker. Following a wash step, a secondary unknown antibody is added at 50 μL/well using the same dilution (or concentration if known) as is used for the primary antibody. The plates are then incubated in the dark for 2 hours at RT on shaker followed by a wash step. Next, 50 μL/well biotinylated m×hIgG diluted 1:500 is added and allowed to incubate in the dark for 1 hour on shaker at RT. Following a wash step, 50 μL/well Streptavidin-PE is added at 1:1000 and allowed to incubate in the dark for 15 minutes on shaker at RT. Following a wash step, each well is resuspended in 80 μL blocking buffer and read using Luminex. […] Competitive binding by antibodies from […] supports antibody specificity for similar or adjacent epitopes. Non competitive binding supports antibody specificity for unique epitopes.
Three bins were created to further test the binding of six anti-GPNMB antibodies. Bin 1 included GPNMB antibodies (1.2.1), (1.10.1), and (2.22.1). Bin 2 included GPNMB antibodies (2.3.1) and (1.15.1), and Bin 3 included GPNMB antibody (2.10.1). The results of the binning assays are provided below in Tables 8 and 9.

Q: Which results are given for “CR011-vcMMAE: CR011 conjugated to monomethyl auristatin E through a protease cleavable valine-citrulline linker; approx. 4 drugs per antibody”?
A: T1/2β ([1]; 1 or 10 mg/kg intravenously): 10.3 days; A (pre-exponential constant for alpha phase) ([1]; 1 mg/kg): 8.97 µg/mL; AUC (total area under the curve from 0 to infinity) ([1]; 1 mg/kg): 3712 µg·h/mL; Alpha (exponential rate constant for alpha phase) ([1]; 1 mg/kg): 0.179 h⁻¹; Alpha-Half Life ([1]; 1 mg/kg): 0.162 days; B (pre-exponential constant for beta phase) ([1]; 1 mg/kg): 9.82 µg/mL; Beta (exponential rate constant for beta phase) ([1]; 1 mg/kg): 0.00269 h⁻¹; Beta-Half Life ([1]; 1 mg/kg): 10.8 days; Cl (total or systemic clearance) ([1]; 1 mg/kg): 6.46 mL/day/kg; MRT (mean residence time) ([1]; 1 mg/kg): 15.3 days; Volume (volume of central compartment) ([1]; 1 mg/kg): 0.0532 L/kg; Vss (steady-state volume of distribution) ([1]; 1 mg/kg): 0.099 L/kg; A (pre-exponential constant for alpha phase) ([1]; 10 mg/kg): 74.6 µg/mL; AUC (total area under the curve from 0 to infinity) ([1]; 10 mg/kg): 41210 µg·h/mL; Alpha (exponential rate constant for alpha phase) ([1]; 10 mg/kg): 0.0812 h⁻¹; Alpha-Half Life ([1]; 10 mg/kg): 0.3555 days; B (pre-exponential constant for beta phase) ([1]; 10 mg/kg): 113 µg/mL; Beta (exponential rate constant for beta phase) ([1]; 10 mg/kg): 0.00281 h⁻¹; Beta-Half Life ([1]; 10 mg/kg): 10.3 days; Cl (total or systemic clearance) ([1]; 10 mg/kg): 5.83 mL/day/kg; MRT (mean residence time) ([1]; 10 mg/kg): 14.5 days; Volume (volume of central compartment) ([1]; 10 mg/kg): 0.0532 L/kg; Vss (steady-state volume of distribution) ([1]; 10 mg/kg): 0.0845 L/kg; volume of distribution at steady state (Vss) ([1]; in words): very low; Clonogenic Assay with 1.15.1-AE IC50 in ng/mL (MOLT-4): No effect (repeating); Clonogenic Assay with 1.15.1-AE IC50 in ng/mL (Jurkat): No effect (repeating); Clonogenic Assay with 1.15.1-AE IC50 in ng/mL (DEL): No effect; Clonogenic Assay with 1.15.1-AE IC50 in ng/mL (KG-1): No growth; Clonogenic Assay with 1.15.1-AE IC50 in ng/mL (Karpas 299): Inconclusive; Clonogenic Assay with 1.15.1-AE IC50 in ng/mL (PL-21): No effect; Clonogenic Assay with 1.15.1-AE IC50 in ng/mL (SU-DHL-1): No effect; Clonogenic Assay with 1.15.1-AE IC50 in ng/mL (SUP-M2): No growth; Clonogenic Assay with 1.15.1-AE IC50 in ng/mL (CCRF-CEM): No growth

Q: What does the source list for “CR011: fully human monoclonal antibody that specifically binds to GPNMB; VH SEQ ID NO: 20, VL SEQ ID NO: 29”?
A: bin (GPNMB; Table 8): VIII; binning signal against antibody 1.1 (GPNMB; Table 8): 91; binning signal against antibody 1.11 (GPNMB; Table 8): 10; binning signal against antibody 1.12 (GPNMB; Table 8): 15; binning signal against antibody 1.13 (GPNMB; Table 8): 13; binning signal against antibody 1.15 (GPNMB; Table 8): 0; binning signal against antibody 1.2 (GPNMB; Table 8): 79; binning signal against antibody 1.3 (GPNMB; Table 8): 71; binning signal against antibody 1.7 (GPNMB; Table 8): 21; binning signal against antibody 1.8 (GPNMB; Table 8): 8; binning signal against antibody 1.9 (GPNMB; Table 8): 12; binning signal against antibody xV5 (GPNMB; Table 8): 89; binning signal against column antibody 1.5 (GPNMB; Table 8): 15; binning signal against antibody 1.1 (GPNMB; Table 9): 127; binning signal against antibody 1.11 (GPNMB; Table 9): 19; binning signal against antibody 1.12 (GPNMB; Table 9): 21; binning signal against antibody 1.13 (GPNMB; Table 9): 5; binning signal against antibody 1.15 (GPNMB; Table 9): 0; binning signal against antibody 1.2 (GPNMB; Table 9): 90; binning signal against antibody 1.3 (GPNMB; Table 9): 51; binning signal against antibody 1.7 (GPNMB; Table 9): 17; binning signal against antibody 1.8 (GPNMB; Table 9): 12; binning signal against antibody 1.9 (GPNMB; Table 9): 19; binning signal against antibody xV5 (GPNMB; Table 9): 125; binning signal against column antibody 1.5 (GPNMB; Table 9): −9; bin (GPNMB; Table 9, Cut-off = 90): VIII; bin (GPNMB; three bins of six anti-GPNMB antibodies): Bin 2
